Non-standard residues stand in square brackets, D forms with d. *: point of attachment. (2-Carboxyethyl)carbamoyl = O=C(O)CCNC(=O)*; (2-carboxyethyl)carbamoyl = O=C(O)CCNC(=O)*; tBuAla = CC(C)(C)C[C@H](N)C(=O)O; 4Pal = N[C@@H](Cc1ccncc1)C(=O)O; dHyp = O=C(O)[C@H]1C[C@H](O)CN1; Cha = N[C@@H](CC1CCCCC1)C(=O)O; Isonicotinoyl = O=C(c1ccncc1)*; Iva = CC[C@](C)(N)C(=O)O; Aib = CC(C)(N)C(=O)O
Tests used:
human Y2 receptor [1] = molecular target: T1, human Y2 receptor (Homo sapiens, UniProt P49146); experiment: Human Y2 Receptor G Protein Binding Assay (GBA), [35S]GTPγS; type: biochemical; conditions: EC50 of test compound/EC50 of PYY(3-36) (PYY3-36 taken as 1), hY2R/CHO membrane fraction
T1 construct: expressed in transfected cells; membrane fraction
T1 sequence (P49146 1-381): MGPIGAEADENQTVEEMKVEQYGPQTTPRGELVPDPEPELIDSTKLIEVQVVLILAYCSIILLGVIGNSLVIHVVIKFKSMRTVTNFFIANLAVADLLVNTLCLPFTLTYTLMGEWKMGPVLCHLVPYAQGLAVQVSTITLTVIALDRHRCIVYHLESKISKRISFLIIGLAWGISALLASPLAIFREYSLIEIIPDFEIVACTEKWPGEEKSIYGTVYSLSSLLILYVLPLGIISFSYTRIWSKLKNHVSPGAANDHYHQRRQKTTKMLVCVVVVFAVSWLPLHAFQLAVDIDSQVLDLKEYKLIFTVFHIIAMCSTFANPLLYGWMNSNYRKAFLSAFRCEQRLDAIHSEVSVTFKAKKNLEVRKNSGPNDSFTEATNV
Procedure, shortened: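 Agonism measured as [35S]GTPγS binding, read by GF/C filtration and scintillation counting after 120 min at room temperature, using human Y2 membranes at 1 μg protein/mL in pH 7.4 Tris/MgCl2/NaCl/GDP buffer. Compound serially diluted 100 μM–1 nM; EC50 normalized to PYY(3-36) (ratio = compound/PYY).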

human Y2 receptor [2] = molecular target: T1, human Y2 receptor; experiment: Receptor Binding Assay (RBA) for Human Y2, [125I]-PYY displacement on hY2R/CHO membrane fraction; conditions: IC50 of test compound/IC50 of PYY(3-36) (PYY(3-36) taken as 1)
Procedure, shortened: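 Read-out is [125I]-PYY displacement from membranes of CHO/dhfr− cells stably transfected with human Y2R. Membranes were obtained by disrupting cells in a buffer of 10 mM NaHCO3, 5 mM EDTA and protease inhibitors.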

male C57EL/6J mice = experiment: 3-Days Continuous Subcutaneous Administration Test-1 (food intake suppressing activity); type: in vivo, mouse; conditions: 0.03 mg/kg/day, subcutaneous Alzet pump, food consumption over 3 days; relative to food intake suppression rate for PYY(3-36) (1 mg/kg/day) taken as 100%
Procedure, shortened: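 Male […] mice, 12-13 weeks, received compound at 0.03 mg/kg/day by subcutaneous osmotic pump (50% DMSO vehicle), housed singly with free food access. Food consumed over 3 days measured; suppression expressed relative to PYY(3-36) (1 mg/kg/day) set as 100%.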

Row | Substance | GBA EC50 Ratio (human Y2 receptor [1]) | RBA IC50 Ratio (human Y2 receptor [2]) | food intake suppression rate (%) (male C57EL/6J mice)
1 | 4-Pyridinecarbonyl-[D-Hyp24, Iva25, Pya(4)26, Cha27,36, Leu(Me)28, Lys30, Aib31]-PYY(23-36) (Isonicotinoyl-S[dHyp][Iva][4Pal][Cha][tBuAla]NK[Aib]TRQR[Cha]-NH2; SMILES CC[C@](C)(NC(=O)[C@H]1C[C@H](O)CN1C(=O)[C@H](CO)NC(=O)c1ccncc1)C(=O)N[C@@H](Cc1ccncc1)C(=O)N[C@@H](CC1CCCCC1)C(=O)N[C@@H](CC(C)(C)C)C(=O)N[C@@H](CC(N)=O)C(=O)N[C@@H](CCCCN)C(=O)NC(C)(C)C(=O)N[C@H](C(=O)N[C@@H](CCCNC(=N)N)C(=O)N[C@@H](CCC(N)=O)C(=O)N[C@@H](CCCNC(=N)N)C(=O)N[C@@H](CC1CCCCC1)C(N)=O)[C@@H](C)O) [compound No. 333] | 1.6 | 0.93 | 28
2 | 4-Pyridinecarbonyl-[D-Pro24, Iva25, Pya(4)26, Cha27,36, Aib28,31, Lys30]-PYY(23-36) (Isonicotinoyl-S[dP][Iva][4Pal][Cha][Aib]NK[Aib]TRQR[Cha]-NH2; SMILES CC[C@](C)(NC(=O)[C@H]1CCCN1C(=O)[C@H](CO)NC(=O)c1ccncc1)C(=O)N[C@@H](Cc1ccncc1)C(=O)N[C@@H](CC1CCCCC1)C(=O)NC(C)(C)C(=O)N[C@@H](CC(N)=O)C(=O)N[C@@H](CCCCN)C(=O)NC(C)(C)C(=O)N[C@H](C(=O)N[C@@H](CCCNC(=N)N)C(=O)N[C@@H](CCC(N)=O)C(=O)N[C@@H](CCCNC(=N)N)C(=O)N[C@@H](CC1CCCCC1)C(N)=O)[C@@H](C)O) [compound No. 301] | 1.1 | 1.0 | 35
3 | (2-Carboxyethyl)carbamoyl-[D-Pro24, Iva25, Pya(4)26, Cha27,36, Aib28,31, Lys30]-PYY(23-36) ({(2-carboxyethyl)carbamoyl}-S[dP][Iva][4Pal][Cha][Aib]NK[Aib]TRQR[Cha]-NH2; SMILES CC[C@](C)(NC(=O)[C@H]1CCCN1C(=O)[C@H](CO)NC(=O)NCCC(=O)O)C(=O)N[C@@H](Cc1ccncc1)C(=O)N[C@@H](CC1CCCCC1)C(=O)NC(C)(C)C(=O)N[C@@H](CC(N)=O)C(=O)N[C@@H](CCCCN)C(=O)NC(C)(C)C(=O)N[C@H](C(=O)N[C@@H](CCCNC(=N)N)C(=O)N[C@@H](CCC(N)=O)C(=O)N[C@@H](CCCNC(=N)N)C(=O)N[C@@H](CC1CCCCC1)C(N)=O)[C@@H](C)O) [compound No. 341] | 2.4 | 3.2 | 35

Continued, in another order:

Row | GBA EC50 Ratio (human Y2 receptor [1]) | RBA IC50 Ratio (human Y2 receptor [2]) | Substance | food intake suppression rate (%) (male C57EL/6J mice)
4 | 1.6 | 1.3 | 4-Pyridinecarbonyl-[D-Hyp24, Iva25,28, Pya(4)26, Cha27,36, Lys30, Aib31]-PYY (23-36) (Isonicotinoyl-S[dHyp][Iva][4Pal][Cha][Iva]NK[Aib]TRQR[Cha]-NH2; SMILES CC[C@](C)(NC(=O)[C@H](CC1CCCCC1)NC(=O)[C@H](Cc1ccncc1)NC(=O)[C@](C)(CC)NC(=O)[C@H]1C[C@H](O)CN1C(=O)[C@H](CO)NC(=O)c1ccncc1)C(=O)N[C@@H](CC(N)=O)C(=O)N[C@@H](CCCCN)C(=O)NC(C)(C)C(=O)N[C@H](C(=O)N[C@@H](CCCNC(=N)N)C(=O)N[C@@H](CCC(N)=O)C(=O)N[C@@H](CCCNC(=N)N)C(=O)N[C@@H](CC1CCCCC1)C(N)=O)[C@@H](C)O) [compound No. 334] | 14
5 | 0.94 | 1.3 | (2-Carboxyethyl)carbamoyl-[D-Pro24, Pya(4)26, Cha27,36, Aib28,31, Lys30]-PYY(23-36) ({(2-Carboxyethyl)carbamoyl}-S[dP]R[4Pal][Cha][Aib]NK[Aib]TRQR[Cha]-NH2; SMILES C[C@@H](O)[C@H](NC(=O)C(C)(C)NC(=O)[C@H](CCCCN)NC(=O)[C@H](CC(N)=O)NC(=O)C(C)(C)NC(=O)[C@H](CC1CCCCC1)NC(=O)[C@H](Cc1ccncc1)NC(=O)[C@H](CCCNC(=N)N)NC(=O)[C@H]1CCCN1C(=O)[C@H](CO)NC(=O)NCCC(=O)O)C(=O)N[C@@H](CCCNC(=N)N)C(=O)N[C@@H](CCC(N)=O)C(=O)N[C@@H](CCCNC(=N)N)C(=O)N[C@@H](CC1CCCCC1)C(N)=O) [compound No. 326] | 57
